# Residue numbers refer to the chain shown, from its start. Names may count otherwise.
# B1: GLS3000 F55A (Kabat) L chain altered form, one-arm antibody with CE115HA000 (antibody, human IgG1, kappa, L234A L235A, N297A, name in Kabat numbering)
# heavy: QVQLVESGGGVVQPGRSLRLSCAASGFTFSNAWMHWVRQAPGKGLEWVAQIKAKSNNYATYYAESVKGRFTISRDDSKNSLYLQMNSLKTEDTAVYYCRYVHYGAYYGVDAWGQGTTVTVSSASTKGPSVFPLAPSSKSTSGGTAALGCLVKDYFPEPVTVSWNSGALTSGVHTFPAVLQSSGLYSLSSVVTVPSSSLGTQTYICNVNHKPSNTKVDKKVEPKSCDKTHTCPPCPAPEAAGGPSVFLFPPKPKDTLMISRTPEVTCVVVDVSHEDPEVKFNWYVDGVEVHNAKTKPREEQYASTYRVVSVLTVLHQDWLNGKEYKCKVSNKALPAPIEKTISKAKGQPREPQVYTLPPSRCELTKNQVSLSCAVKGFYPSDIAVEWESNGQPENNYKTTPPVLDSDGSFFLVSKLTVDKSRWQQGNVFSCSVMHEALHNHYTQKSLSLSPDYKDDDDK
# chain: EPKSSDKTHTCPPCPAPELLGGPSVFLFPPKPKDTLMISRTPEVTCVVVDVSHEDPEVKFNWYVDGVEVHNAKTKPREEQYNSTYRVVSVLTVLHQDWLNGKEYKCKVSNKALPAPIEKTISKAKGQPREPQVCTLPPSRDELTKNQVSLWCLVKGFYPSDIAVEWESNGQPENNYKTTPPVLDSDGSFFLYSKLTVDKSRWQQGNVFSCSVMHEALHNRYTQKSLSLSP
# light: DIVMTQSPLSLPVTPGEPASISCRSSQSLVHSNRNTYLHWYQQKPGQAPRLLIYKVSNRASGVPDRFSGSGSGTDFTLKISRVEAEDVGVYYCGQGTQVPYTFGQGTKLEIKRTVAAPSVFIFPPSDEQLKSGTASVVCLLNNFYPREAKVQWKVDNALQSGNSQESVTEQDSKDSTYSLSSTLTLSKADYEKHKVYACEVTHQGLSSPVTKSFNRGEC
# notes: one-arm antibody
# B2: GLS3000 H27dF (Kabat) L chain altered form, one-arm antibody with CE115HA000 (antibody, human IgG1, kappa, L234A L235A, N297A, name in Kabat numbering)
# heavy: B1 heavy
# chain: B1 chain
# light: B1 light with H31F, A60F
# notes: one-arm antibody
# B3: GLS3000 H27dG (Kabat) L chain altered form, one-arm antibody with CE115HA000 (antibody, human IgG1, kappa, L234A L235A, N297A, name in Kabat numbering)
# heavy: B1 heavy
# chain: B1 chain
# light: B1 light with H31G, A60F
# notes: one-arm antibody
# B4: GLS3000 H27dN (Kabat) L chain altered form, one-arm antibody with CE115HA000 (antibody, human IgG1, kappa, L234A L235A, N297A, name in Kabat numbering)
# heavy: B1 heavy
# chain: B1 chain
# light: B1 light with H31N, A60F
# notes: one-arm antibody
# B5: GLS3000 H27dK (Kabat) L chain altered form, one-arm antibody with CE115HA000 (antibody, human IgG1, kappa, L234A L235A, N297A, name in Kabat numbering)
# heavy: B1 heavy
# chain: B1 chain
# light: B1 light with H31K, A60F
# notes: one-arm antibody
# B6: GLS3000 H27dI (Kabat) L chain altered form, one-arm antibody with CE115HA000 (antibody, human IgG1, kappa, L234A L235A, N297A, name in Kabat numbering)
# heavy: B1 heavy
# chain: B1 chain
# light: B1 light with H31I, A60F
# notes: one-arm antibody
# B7: GLS3000 H27dE (Kabat) L chain altered form, one-arm antibody with CE115HA000 (antibody, human IgG1, kappa, L234A L235A, N297A, name in Kabat numbering)
# heavy: B1 heavy
# chain: B1 chain
# light: B1 light with H31E, A60F
# notes: one-arm antibody
# B8: GLS3000 H27dM (Kabat) L chain altered form, one-arm antibody with CE115HA000 (antibody, human IgG1, kappa, L234A L235A, N297A, name in Kabat numbering)
# heavy: B1 heavy
# chain: B1 chain
# light: B1 light with H31M, A60F
# notes: one-arm antibody
# B9: GLS3000 H27dL (Kabat) L chain altered form, one-arm antibody with CE115HA000 (antibody, human IgG1, kappa, L234A L235A, N297A, name in Kabat numbering)
# heavy: B1 heavy
# chain: B1 chain
# light: B1 light with H31L, A60F
# notes: one-arm antibody
# B10: GLS3000 H27dP (Kabat) L chain altered form, one-arm antibody with CE115HA000 (antibody, human IgG1, kappa, L234A L235A, N297A, name in Kabat numbering)
# heavy: B1 heavy
# chain: B1 chain
# light: B1 light with H31P, A60F
# notes: one-arm antibody
# B11: GLS3000 H27dD (Kabat) L chain altered form, one-arm antibody with CE115HA000 (antibody, human IgG1, kappa, L234A L235A, N297A, name in Kabat numbering)
# heavy: B1 heavy
# chain: B1 chain
# light: B1 light with H31D, A60F
# notes: one-arm antibody
# Molecular target: T1, CD3 epsilon homodimer protein (UniProt P07766 23-126)
# T1 construct: construct not described; homodimer as printed; also called CD3 (CD3 epsilon)
# Assay: SPR Biacore T200, CD3 epsilon homodimer immobilized; vs unaltered GLS3000;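 note: antibody variants flowed as analyte over CD3 epsilon homodimer amine-coupled to a CM4 chip, at 25 °C in HBS-EP+ running buffer, fitted with Biacore T200 Evaluation Software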
# T1 sequence (P07766 23-126): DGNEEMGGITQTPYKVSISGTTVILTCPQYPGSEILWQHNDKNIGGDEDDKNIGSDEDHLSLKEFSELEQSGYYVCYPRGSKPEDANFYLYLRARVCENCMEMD
row,KD ratio to GLS3000 (Affinity up),Binder
1,1.16,B1
2,2.05,B2
3,3.51,B3
4,3.43,B4
5,3.8,B5
6,7.77,B6
7,42.3,B7
8,3.43,B8
9,3.37,B9
10,9.21,B10
11,13600,B11
